{
  "source": "paper PMC9205463",
  "substrate": "Nc1ncnc2c1ncn2[C@@H]1O[C@H](COP(=O)(O)OP(=O)(O)OP(=O)(O)O)[C@@H](O)[C@H]1O",
  "experiment": "purified protein",
  "conditions": "M13 ssDNA effector; ATP 0-4 mM",
  "data": [
    {"protein": "DDX41 (Homo sapiens) (protein) MEESEPERKRARTDEVPAGGSRSEAEDEDDEDYVPYVPLRQRRQLLLQKLLQRRRKGAAEEEQQDSGSEPRGDEDDIPLGPQSNVSLLDQHQHLKEKAEARKESAKEKQLKEEEKILESVAEGRALMSVKEMAKGITYDDPIKTSWTPPRYVLSMSEERHERVRKKYHILVEGDGIPPPIKSFKEMKFPAAILRGLKKKGIHHPTPIQIQGIPTILSGRDMIGIAFTGSGKTLVFTLPVIMFCLEQEKRLPFSKREGPYGLIICPSRELARQTHGILEYYCRLLQEDSSPLLRCALCIGGMSVKEQMETIRHGVHMMVATPGRLMDLLQKKMVSLDICRYLALDEADRMIDMGFEGDIRTIFSYFKGQRQTLLFSATMPKKIQNFAKSALVKPVTINVGRAGAASLDVIQEVEYVKEEAKMVYLLECLQKTPPPVLIFAEKKADVDAIHEYLLLKGVEAVAIHGGKDQEERTKAIEAFREGKKDVLVATDVASKGLDFPAIQHVINYDMPEEIENYVHRIGRTGRSGNTGIATTFINKACDESVLMDLKALLLEAKQKVPPVLQVLHCGDESMLDIGGERGCAFCGGLGHRITDCPKLEAMQTKQVSNIGRKDYLAHSSMDF", "values": [
      {"measurement": "Km", "result": 200, "unit": "µM"},
      {"measurement": "kcat", "result": "953.6 ± 45.5", "unit": "s⁻¹"}
    ]}
  ]
}
